Laboratory results: patent US7799901B2, “Modulators of the function of FAS receptors and other proteins” (Yeda Research and Development Co. Ltd., priority 1995, dated 2010)

Experiments:
[1] = tested on: fragment of MORT-1 corresponding to residues 1-117; test: Two-hybrid test (FIG. 1), binding to MORT-1 residues 1-117
Text: (§1) To isolate proteins interacting with the intracellular domain of the FAS-R, the yeast two-hybrid system was used (Fields and Song, 1989). […] In this system, the genes for the candidate interacting proteins are cloned into separate expression vectors. In one expression vector, the sequence of the one candidate protein is cloned in phase with the sequence of the GAL4 DNA-binding domain to generate a hybrid protein with the GAL4 DNA-binding-domain, and in the other vector, the sequence of the second candidate protein is cloned in phase with the sequence of the GAL4 activation domain to generate a hybrid protein with the GAL4-activation domain. The two hybrid vectors are then co-transformed into a yeast host strain having a lacZ or HIS3 reporter gene under the control of upstream GAL4 binding sites. Only those transformed host cells (cotransformants) in which the two hybrid proteins are expressed and are capable of interacting with each other, will be capable of expressing the reporter gene. In the case of the lacZ reporter gene, host cells expressing this gene will become blue in color when X-gal is added to the cultures. […]
(§2) In FIG. 1, there is depicted the interaction of the proteins encoded by the Gal4 DNA binding domain and activation-domain constructs (pGBT9 and pGAD-GH) within transfected SFY526 yeasts as assessed by β-galactosidase expression filter assay. […]

[2] = tested on: FAS-R mediated cell death in HeLa cells; test: Anti-FAS-R antibody (CH-11) induced death of HeLa cells co-expressing FAS-R, neutral-red uptake; type: cell-based; conditions: co-expression with human FAS-R in HeLa HtTA-1; CH-11 antibody plus 10 μg/ml cycloheximide
Text: In another set of experiments to analyze the region of the MORT-1 protein involved in the binding to the FAS-IC, the following proteins were expressed transiently in HeLa cells that contain a tetracycline-controlled transactivator (HtTA-1), using a tetracycline-controlled expression vector (pUHD10-3): Human FAS-R alone; Human FAS-R as well as the N-terminal part of MORT-1 (amino acids 1-117, the “MORT-1 head”); Human FAS-R as well as the C-terminal part of MORT-1, which contains its ‘death domain’ homology region (amino acids 130-245, the “MORT-1 DD”); FLAG-55.11 (amino acids 309-900 of protein 55.11 fused at the N-terminus to the FLAG octapeptide, the protein 55.11 being a p55-IC-specific binding protein. Twelve hours after transfection, the cells were trypsinized and re-seeded at a concentration of 30,000 cells/well. After 24 hrs further incubation, the cells were treated for 6 hrs with a monoclonal antibody against the extracellular domain of FAS-R (monoclonal antibody CH-11, Oncor, Gaithersburg, Md., USA) at various concentrations (0.001-10 μg/ml monoclonal antibody), in the presence of 10 μg/ml cycloheximide. Cell viability was then determined by the neutral-red uptake assay and the results were presented in terms of % viable cells as compared to cells that had been incubated with cycloheximide alone (in the absence of anti-FAS-R monoclonal antibody CH-11). […]

FAS-IC = molecular target: T1, FAS-IC (Homo sapiens, UniProt P25445); test: Two-hybrid test (FIG. 1), binding of MORT-1 fragments to FAS-IC
T1 construct: the FAS-IC extends-from amino acid residues 175-319 of the intact FAS-R; expressed in transfected cells; host or cells: SFY526 yeast
T1 sequence (P25445 191-335): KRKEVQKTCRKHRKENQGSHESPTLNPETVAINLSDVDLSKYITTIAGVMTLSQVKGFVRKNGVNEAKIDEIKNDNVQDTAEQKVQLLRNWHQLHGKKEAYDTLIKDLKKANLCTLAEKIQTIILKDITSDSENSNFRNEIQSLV
Text: as §1, §2

MORT-1 = molecular target: T2, MORT-1 (Homo sapiens, UniProt Q13158, G32V); test: Two-hybrid test (FIG. 1), binding to full-length MORT-1; design: expressed in transfected cells; host or cells: SFY526 yeast
T2 sequence (Q13158 with tags, fused parts or gaps G32V): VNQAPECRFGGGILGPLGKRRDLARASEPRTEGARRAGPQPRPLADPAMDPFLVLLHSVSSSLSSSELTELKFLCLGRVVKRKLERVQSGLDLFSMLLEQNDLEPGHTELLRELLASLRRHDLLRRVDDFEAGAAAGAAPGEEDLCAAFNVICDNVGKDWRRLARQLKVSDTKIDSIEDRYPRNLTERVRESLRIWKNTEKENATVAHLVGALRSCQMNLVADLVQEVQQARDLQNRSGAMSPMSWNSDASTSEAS
Text: To isolate proteins interacting with the intracellular domain of the FAS-R, the yeast two-hybrid system was used (Fields and Song, 1989). […] In this system, the genes for the candidate interacting proteins are cloned into separate expression vectors. In one expression vector, the sequence of the one candidate protein is cloned in phase with the sequence of the GAL4 DNA-binding domain to generate a hybrid protein with the GAL4 DNA-binding-domain, and in the other vector, the sequence of the second candidate protein is cloned in phase with the sequence of the GAL4 activation domain to generate a hybrid protein with the GAL4-activation domain. The two hybrid vectors are then co-transformed into a yeast host strain having a lacZ or HIS3 reporter gene under the control of upstream GAL4 binding sites. Only those transformed host cells (cotransformants) in which the two hybrid proteins are expressed and are capable of interacting with each other, will be capable of expressing the reporter gene. In the case of the lacZ reporter gene, host cells expressing this gene will become blue in color when X-gal is added to the cultures.
(b) retransforming the plasmid DNA and original FAS-IC hybrid plasmid and control plasmids described in (a) into yeast host cells of strain SFY526 and determining the LACZ^+ activity (effectivity of β-gal formation, i.e., blue color formation).
In FIG. 1, there is depicted the interaction of the proteins encoded by the Gal4 DNA binding domain and activation-domain constructs (pGBT9 and pGAD-GH) within transfected SFY526 yeasts as assessed by β-galactosidase expression filter assay. The DNA-binding-domain constructs included four constructs of the human Fas-IC, four constructs of the mouse Fas-IC including two full-length constructs having […] or Ile to Ala replacement mutations at position 225 (I225N and I225A, respectively), and three MORT-1 constructs, all of which are shown schematically on the left hand side of FIG. 1. […]

B1: fragment of MORT-1 corresponding to residues 1-117: N-terminal part of MORT-1, amino acids 1-117 (protein)
chain: VNQAPECRFGGGILGPLGKRRDLARASEPRTEGARRAGPQPRPLADPAMDPFLVLLHSVSSSLSSSELTELKFLCLGRVVKRKLERVQSGLDLFSMLLEQNDLEPGHTELLRELLAS
- binding to MORT-1 residues 1-117 in two-hybrid test [1]: does not bind
- effect on FAS-induced (FAS-R mediated) cell death [2]: does not interfere
- binding to FAS-IC / FAS-R in two-hybrid test (FAS-IC): does not bind
- binding to full-length MORT-1 in two-hybrid test (MORT-1): binds
